Experimental data published in publication PMC5531472, “A single nucleotide polymorphism causes enhanced radical oxygen species production by human aldehyde oxidase” (PLoS ONE, 2017).
Numbering of substitutions follows the chain as printed. Names may count otherwise.

Biological target: the molecule itself
Test: SEC; size exclusion chromatography on a Superdex 200 10/300 GL column after nickel-NTA purification; data not shown

B1: human aldehyde oxidase 1 variant H363Q (enzyme)
chain: MDRASELLFYVNGRKVIEKNVDPETMLLPYLRKKLRLTGTKYGCGGGGCGACTVMISRYNPITKRIRHHPANACLIPICSLYGAAVTTVEGIGSTHTRIHPVQERIAKCHGTQCGFCTPGMVMSIYTLLRNHPEPTLDQLTDALGGNLCRCTGYRPIIDACKTFCKTSGCCQSKENGVCCLDQGINGLPEFEEGSKTSPKLFAEEEFLPLDPTQELIFPPELMIMAEKQSQRTRVFGSERMMWFSPVTLKELLEFKFKYPQAPVIMGNTSVGPEVKFKGVFHPVIISPDRIEELSVVNHAYNGLTLGAGLSLAQVKDILADVVQKLPEEKTQMYHALLKHLGTLAGSQIRNMASLGGHIISRQPDSDLNPILAVGNCTLNLLSKEGKRQIPLNEQFLSKCPNADLKPQEILVSVNIPYSRKWEFVSAFRQAQRQENALAIVNSGMRVFFGEGDGIIRELCISYGGVGPATICAKNSCQKLIGRHWNEQMLDIACRLILNEVSLLGSAPGGKVEFKRTLIISFLFKFYLEVSQILKKMDPVHYPSLADKYESALEDLHSKHHCSTLKYQNIGPKQHPEDPIGHPIMHLSGVKHATGEAIYCDDMPLVDQELFLTFVTSSRAHAKIVSIDLSEALSMPGVVDIMTAEHLSDVNSFCFFTEAEKFLATDKVFCVGQLVCAVLADSEVQAKRAAKRVKIVYQDLEPLILTIEESIQHNSSFKPERKLEYGNVDEAFKVVDQILEGEIHMGGQEHFYMETQSMLVVPKGEDQEMDVYVSTQFPKYIQDIVASTLKLPANKVMCHVRRVGGAFGGKVLKTGIIAAVTAFAANKHGRAVRCVLERGEDMLITGGRHPYLGKYKAGFMNDGRILALDMEHYSNAGASLDESLFVIEMGLLKMDNAYKFPNLRCRGWACRTNLPSNTAFRGFGFPQAALITESCITEVAAKCGLSPEKVRIINMYKEIDQTPYKQEINAKNLIQCWRECMAMSSYSLRKVAVEKFNAENYWKKKGLAMVPLKFPVGLGSRAAGQAAALVHIYLDGSVLVTHGGIEMGQGVHTKMIQVVSRELRMPMSNVHLRGTSTETVPNANISGGSVVADLNGLAVKDACQTLLKRLEPIISKNPKGTWKDWAQTAFDESINLSAVGYFRGYESDMNWEKGEGQPFEYFVYGAACSEVEIDCLTGDHKNIRTDIVMDVGCSINPAIDIGQIEGAFIQGMGLYTIEELNYSPQGILHTRGPDQYKIPAICDMPTELHIALLPPSQNSNTLYSSKGLGESGVFLGCSVFFAIHDAVSAARQERGLHGPLTLNSPLTPEKIRMACEDKFTKMIPRDEPGSYVPWNVPI
notes: human aldehyde oxidase 1 (hAOX1), protein of 1338 amino acids, SNP-based variant H363Q; construct pAF7 derived from pTHcohAOX1; also called hAOX1 H363Q; pAF7; source: E. coli TP1000 (ΔmobAB), purified (nickel-nitrilotriacetic acid resin, size exclusion chromatography)
- stoichiometry N: 2

B2: human aldehyde oxidase 1 variant R433P (enzyme)
chain: B1 chain with Q363H, R433P
notes: human aldehyde oxidase 1 (hAOX1), protein of 1338 amino acids, SNP-based variant R433P; construct pAF8 derived from pTHcohAOX1; also called hAOX1 R433P; pAF8; source: E. coli TP1000 (ΔmobAB), purified (nickel-nitrilotriacetic acid resin, size exclusion chromatography)
- stoichiometry N: 2

B3: human aldehyde oxidase 1 variant A437V (enzyme)
chain: B1 chain with Q363H, A437V
notes: human aldehyde oxidase 1 (hAOX1), protein of 1338 amino acids, SNP-based variant A437V; construct pAF9 derived from pTHcohAOX1; also called hAOX1 A437V; pAF9; source: E. coli TP1000 (ΔmobAB), purified (nickel-nitrilotriacetic acid resin, size exclusion chromatography)
- stoichiometry N: 2

B4: human aldehyde oxidase 1 variant A439E (enzyme)
chain: B1 chain with Q363H, A439E
notes: human aldehyde oxidase 1 (hAOX1), protein of 1338 amino acids, SNP-based variant A439E; construct pAF11 derived from pTHcohAOX1; also called hAOX1 A439E; pAF11; source: E. coli TP1000 (ΔmobAB), purified (nickel-nitrilotriacetic acid resin, size exclusion chromatography)
- stoichiometry N: 2

B5: human aldehyde oxidase 1 variant R1231H (enzyme)
chain: B1 chain with Q363H, R1231H
notes: human aldehyde oxidase 1 (hAOX1), protein of 1338 amino acids, SNP-based variant R1231H; construct pAF12 derived from pTHcohAOX1; also called hAOX1 R1231H; pAF12; source: E. coli TP1000 (ΔmobAB), purified (nickel-nitrilotriacetic acid resin, size exclusion chromatography)
- stoichiometry N: 2

B6: human aldehyde oxidase 1 variant L438V (enzyme)
chain: B1 chain with Q363H, L438V
notes: human aldehyde oxidase 1 (hAOX1), protein of 1338 amino acids, SNP-based variant L438V; construct pAF10 derived from pTHcohAOX1; also called hAOX1 L438V; hAOX1-L438V; source: E. coli TP1000 (ΔmobAB), purified (nickel-nitrilotriacetic acid resin, size exclusion chromatography)
- stoichiometry N: 2
